Starred links: 1 amine or outer side, 2 acyl side, 3 side chain; linkers in the order of their positions; H or OH if unused. Positions of bridges follow the written chain, without caps; N, C: chain ends. Non-standard residues stand in square brackets, D forms with d. Residues, ends and D or L forms follow the SMILES beside them. Groups on a side chain read outwards from the residue. Triazole bridges read from a SMILES are 1,4-linked. *: point of attachment. DOTA = O=C(O)CN1CCN(CC(=O)O)CCN(CC(=O)*)CCN(CC(=O)O)CC1; Pteroyl = Nc1nc2ncc(CNc3ccc(C(=O)*)cc3)nc2c(=O)[nH]1; Biotin = O=C1N[C@H]2[C@H](CS[C@H]2CCCCC(=O)*)N1; Butanoyl(4-(4-MePh)) = Cc1ccc(CCCC(=O)*)cc1; Lys(N3) = [N-]=[N+]=NCCCC[C@H](N)C(=O)O; γGlu = O=C(O)[C@H](CCC(=O)[*:2])N[*:1]; AEEEA = NCCOCCOCCOCC(=O)O; Pra = C#CC[C@H](N)C(=O)O; X1 = NOCC(=O)*
Experiments:
OVCAR3 xenograft [1] = assay: 177Lu FOLR1 radioligand therapy of OVCAR3 xenografts; type: in vivo, mouse; conditions: single dose
[2] = Maximum tolerated dose (MTD) tolerability study
Description: In order to establish a maximum tolerated dose (MTD), a tolerability study was undertaken testing increasing amounts of the 177-Lu heterobiligand 7327 (folate-hshta-Gly-Phe-Lys(DOTA)). Animals were monitored for signs of toxicity and weighed twice weekly. […] The second and third doses were administered 21 days following the previous dose.
Efforts were undertaken to evaluate 177-Lu 6305 (folate-hshta-Lys(MPBA)-Gly-Phe-Lys(DOTA)), a compound with a brush border cleavable linker in addition to an albumin binder. […] Two separate MTD experiments were undertaken. […] A second experiment interrogated lower doses.
In order to establish a MTD, dose range finding studies were undertaken testing increasing amounts of Indi ^177Lu-7327 in healthy, non-tumor bearing female NSG mice using IV administration (FIGS. 34 and 35). Mouse body weight and behavior were monitored. […] The second and third doses were administered 21 days following the previous dose.

[3] = Gamma counting of tissue radioactivity; type: in vivo, mouse; conditions: for kidney radioactivity / liver radioactivity / tumor radioactivity: Day 28 post-injection
Source text: 7 days after Lu177-#6305 injection, the 29.6 MBq group lost 20% body weight. These mice were sacrificed. Tissues and plasma were collected for evaluation of radioactivity by gamma counting. The toxicity may have resulted from its accumulation in the kidneys and liver (FIG. 28). At study endpoint (Day 28 post-injection), plasma, tumors, kidneys, lungs, hearts, livers, and muscles from 9.25 MBq and 14.8 MBq treatment groups were collected for evaluation of radioactivity by gamma counting (FIG. 29).

OVCAR3 xenograft [4] = assay: 177Lu FOLR1 radioligand therapy of OVCAR3 xenografts; type: in vivo, mouse; conditions: for tumor response: single dose at 18.5 MBq/nmol, tumor size (avg.) 148 mm^3
Description: Water and food were provided ad libitum. […] Tumor growth was monitored by caliper measurements.
OVCAR3 tumor bearing mice were used to study FOLR1-directed radioligand therapy (RLT) for treatment of ovarian cancer. Animals were administered a single dose of heterobiligand (vehicle control) or 111, 37, 18.5, 9.25, or 3.7 MBq [^177Lu]DOTA-labeled heterobiligand. Mice received the dose intravenously (i.v.) via the tail vein. To monitor the effect of the RLT, tumor size measurements were taken twice weekly and body weights were measured.
Single dose treatments at 18.5 MBq/nmol specific activity. OVCAR3 mouse model was used. 10^7 cell tumors were implanted in the mice one month before administration of ^177Lu-#6305. Five mice each were administered Cold #6305, 9.25 MBq Lu177-#6305, and 14.8 MBq Lu177-#6305, and two mice were administered 29.6 MBq Lu177-#6305. Tumor growth and body weight were then monitored.
Female NSG mice were implanted subcutaneously with OVCAR3 cells. Once tumors reached volumes of 200 mm^3, the animals were treated with 177-Lu 7327. Three treatment arms of 9.25 MBq, 14.8 MBq, and 29.6 MBq were studied.

human recombinant NEP = human recombinant NEP (Homo sapiens, UniProt P08473); assay: NEP enzymatic cleavage assay (MALDI, HPLC); type: biochemical
Chain of human recombinant NEP (P08473 whole entry): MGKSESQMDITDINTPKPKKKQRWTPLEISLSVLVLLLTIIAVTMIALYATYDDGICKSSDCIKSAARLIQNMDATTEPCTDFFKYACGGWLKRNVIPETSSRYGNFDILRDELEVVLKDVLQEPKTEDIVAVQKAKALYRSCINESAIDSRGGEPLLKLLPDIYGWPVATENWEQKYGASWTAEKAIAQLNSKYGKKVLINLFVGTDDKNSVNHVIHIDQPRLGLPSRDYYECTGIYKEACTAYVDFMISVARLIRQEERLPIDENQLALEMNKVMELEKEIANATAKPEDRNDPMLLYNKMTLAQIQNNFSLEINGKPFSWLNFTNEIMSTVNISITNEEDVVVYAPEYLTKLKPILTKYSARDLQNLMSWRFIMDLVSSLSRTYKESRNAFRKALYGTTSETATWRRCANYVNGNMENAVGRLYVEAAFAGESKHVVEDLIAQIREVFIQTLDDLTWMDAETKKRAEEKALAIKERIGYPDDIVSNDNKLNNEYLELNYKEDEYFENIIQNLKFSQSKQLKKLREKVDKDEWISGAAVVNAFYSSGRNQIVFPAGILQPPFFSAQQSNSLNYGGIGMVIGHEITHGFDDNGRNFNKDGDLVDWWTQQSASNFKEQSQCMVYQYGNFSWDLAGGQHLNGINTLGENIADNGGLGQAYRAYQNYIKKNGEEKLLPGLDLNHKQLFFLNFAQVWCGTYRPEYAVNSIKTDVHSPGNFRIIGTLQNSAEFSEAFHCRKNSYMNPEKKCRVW
Description: In order to test the susceptibility of GFK and MVK linkers to NEP-mediated cleavage, the peptide (Folate-hshta-Lys(MPBA)-Gly-Phe-Lys(DOTA) (SEQ ID NO:6)) was incubated with human recombinant NEP and analyzed the solution for the presence of cleaved adducts. MALDI was utilized to monitor the cleavage of a PCC heterobiligand that contains a NEP protease recognizable sequence (G-F-K). The PCC concentration was constant and the NEP concentration was titrated down from 10 nM to 1 nM, 0.1 nM, 0.01 nM, and no NEP. The NEP-mediated cleaved adduct was identified by mass. 10 μM PCC containing the GFK linker was combined with varying amounts of NEP. […] Below 0.1 nM no cleavage was observed. • Folate-hshta-Lys(MPBA)-Gly-Phe-Lys(DOTA) (SEQ ID NO:6) • Molecular weight 2231.42
The NEP-mediated cleavage was also monitored by HPLC. In agreement with the MALDI spectra, the HPLC chromatograms show depletion of the parent brush-border heterobiligand (retention time 17.1 minutes), dose-dependent on the amount of NEP spiked into the sample (10 nM, 1 nM, 0.1 nM, 0.01 nM, and no NEP). An appearance of a new peak (retention time 16.5 minutes) in concert with the depletion of the starting material is presumed to be the cleaved folate-containing peptide.
In order to test the specificity of NEP, a non-cleavable linker (PEG3) was also assayed.
To reduce the radioactive dose to the kidney, Indi ^177Lu-7327 was constructed to incorporate a GFK linker that is susceptible to cleavage by enzymes found predominately in the kidney's brush border. These enzymes cleave off the radionuclide-chelator complex, which is quickly eliminated by the kidney for excretion in the urine. The zinc metalloprotease neprilysin (NEP) is expressed with high abundance in the kidney. […] To confirm NEP-mediated cleavage of the GFK linker in Indi 7327, the peptide was incubated with recombinant human NEP at 37° C. for 1 h and analyzed by matrix-assisted laser desorption/ionization mass spectrometry (MALDI-MS) for the evolution of cleaved adducts (FIG. 42). […] The expected cleaved adduct (mass: 1283.16 m/z) appears in the samples containing 10, 1.0, and 0.1 nM NEP. […] Below 0.1 nM NEP, no cleavage was observed. In addition to confirming the selectivity of NEP for the GFK linker, it is also important to note that the remaining portions of the Indi 7327 were impervious to the enzyme.

[5] = Plasma protein binding, CD-1 mouse plasma; type: in vitro ADME; conditions: for fraction unbound / recovery: CD-1 mouse plasma; for fraction unbound: read-out: Plasma % Bound, Mu (converted)
Description: (§1) HTD 96 a/b regenerated cellulose membrane strips with mass cutoff of 12-14 kDa were soaked in ultra-pure water at room temperature for 1 hour. Each swelled membrane was then soaked in 20:80 ethanol:water for 20 minutes.
(§2) Just prior to the experiment, the membranes were re-soaked in ultra-pure water. Plasma was prepared by thawing under cold water. The plasma was centrifuged to remove any clots and pH was adjusted to 7.0-8.0. Test articles and control compounds were diluted to 2 μM. The dialysis device was loaded by transferring 150 μL of the test article (in triplicate) to the donor side. The dialysis device was placed in a humidified incubator at 37° C. with 5% CO2 in a shaking platform that rotated slowly for 4 hours. After incubation, 50 μL of the supernatant was taken from both sides and analyzed by LC-MS/MS.

[6] = Plasma protein binding, human plasma; type: in vitro ADME; conditions: for recovery / fraction unbound: human plasma; for fraction unbound: read-out: Plasma % Bound, Hu (converted)
Description: as §1, §2

[7] = tested on: OVCAR3 FOLR1+ cells (PC-3 FOLR1− cells as negative line); assay: Flow cytometry binding to FOLR1 (+) and FOLR1 (−) cell lines; type: cell-based, human; conditions: OVCAR3 vs PC-3, flow cytometry
Description: Both the kyeet (SEQ ID NO:9) and hshta (SEQ ID NO:6)-derived biligands were tested by flow cytometry for binding to FOLR1 (+) and FOLR1 (−) cell lines (FIGS. 6 and 7). The human ovarian adenocarcinoma-derived cell line OVCAR3 has robust FOLR1 expression and was selected as the FOLR1 (+) cell line. The human prostate adenocarcinoma-derived cell line PC-3 was selected as a FOLR1 (−) cell line.

[8] = 29.6 MBq group, Day 7 post-injection
[9] = read-out: Plasma protein binding % Recovery, Mu
[10] = read-out: Plasma protein binding % Recovery, Hu

Cc1ccc(CCCC(=O)NCCCC[C@H](NC(=O)[C@@H]2CCCCn3cc(nn3)C[C@H](NC(=O)CC[C@H](NC(=O)c3ccc(NCc4cnc5nc(N)[nH]c(=O)c5n4)cc3)C(=O)O)C(=O)N[C@H](Cc3c[nH]cn3)C(=O)N[C@H](CO)C(=O)N[C@H](Cc3c[nH]cn3)C(=O)N[C@H]([C@H](C)O)C(=O)N[C@H](C)C(=O)N2)C(=O)NCC(=O)N[C@@H](Cc2ccccc2)C(=O)N[C@@H](CCCCNC(=O)CN2CCN(CC(=O)O)CCN(CC(=O)O)CCN(CC(=O)O)CC2)C(=O)O)cc1 (177Lu complex, metal not drawn) [Lu177-#6305] ({Pteroyl-γGlu}-[Pra][dH][dS][dH][dT][dA][Lys(N3)]K(Butanoyl(4-(4-MePh)))GFK(DOTA)-OH; triazole 1-7)
OVCAR3 tumor growth (OVCAR3 xenograft [1]; 14.8 MBq): significantly slowed down OVCAR3 tumor growth | body weight change (OVCAR3 xenograft [1]; 29.6 MBq): substantial body weight decrease | tolerability of second dose ([2]; 14.8-22.2 MBq, second dose administered 21 days): not tolerated | tolerability of second dose ([2]; 29.6-185 MBq, second dose 7 days after the first): not tolerated | body weight ([2]; 29.6 MBq, 37 MBq, 111 MBq, and 185 MBq, first dose): began to experience weight loss after the first dose | body weight ([2]; single dose of 14.8 MBq, 18.5 MBq, and 22.2 MBq): only minimal loss in body weight that quickly stabilized | kidney radioactivity ([3]; 9.25 MBq group): 414 CPM/g | liver radioactivity ([3]; 9.25 MBq group): 685 CPM/g | tumor radioactivity ([3]; 9.25 MBq group): 33 CPM/g | liver/kidney ratio ([3]; 14.8 MBq group on Day 28): 1.94 | kidney radioactivity ([3]; 14.8 MBq group): 653 CPM/g | liver radioactivity ([3]; 14.8 MBq group): 1,264 CPM/g | tumor radioactivity ([3]; 14.8 MBq group): 60 CPM/g | liver/kidney ratio ([3]; 29.6 MBq group on Day 7): 0.27 | radioactivity in the kidney [3, 8]: 394,834 CPM/g | radioactivity in the liver [3, 8]: 107,374 CPM/g | radioactivity in the tumor [3, 8]: 42,674 CPM/g | body weight change (OVCAR3 xenograft [4]; 9.25 MBq and 14.8 MBq, single dose): No significant body weight change | tumor response (OVCAR3 xenograft [4]; 9.25 MBq): nonresponse | tumor response (OVCAR3 xenograft [4]; 14.8 MBq): partial response | body weight lost (OVCAR3 xenograft [4]; 29.6 MBq group, 7 days after injection): 20%

Cc1ccc(CCCC(=O)NCCCC[C@H](NC(=O)[C@@H]2CCCCn3cc(nn3)C[C@H](NC(=O)CC[C@H](NC(=O)c3ccc(NCc4cnc5nc(N)[nH]c(=O)c5n4)cc3)C(=O)O)C(=O)N[C@H](Cc3c[nH]cn3)C(=O)N[C@H](CO)C(=O)N[C@H](Cc3c[nH]cn3)C(=O)N[C@H]([C@H](C)O)C(=O)N[C@H](C)C(=O)N2)C(=O)NCC(=O)N[C@@H](Cc2ccccc2)C(=O)N[C@@H](CCCCNC(=O)COCCOCCOCCNC(=O)CN2CCN(CC(=O)O)CCN(CC(=O)O)CCN(CC(=O)O)CC2)C(=O)O)cc1 [compound 3302, Fol-hshta-Lys(4-MPBA)-Gly-Phe-Lys(PEG3-DOTA)] ({Pteroyl-γGlu}-[Pra][dH][dS][dH][dT][dA][Lys(N3)]K(Butanoyl(4-(4-MePh)))GFK([AEEEA-DOTA])-OH; triazole 1-7)
in vitro Assay Data (NEP assay) (human recombinant NEP; Table 2): Cleavage of -G-F-K- | fraction unbound [5]: 0.035 | recovery [5, 9]: 103% | recovery [6, 10]: 88.1% | fraction unbound ([6]; human, plasma): 0.051

C[C@H](O)[C@H]1NC(=O)[C@@H](Cc2cnc[nH]2)NC(=O)[C@@H](CO)NC(=O)[C@@H](Cc2cnc[nH]2)NC(=O)[C@@H](NC(=O)CC[C@H](NC(=O)c2ccc(NCc3cnc4nc(N)[nH]c(=O)c4n3)cc2)C(=O)O)Cc2cn(nn2)CCCC[C@@H](C(=O)NCC(=O)N[C@@H](Cc2ccccc2)C(=O)N[C@@H](CCCCNC(=O)CON)C(=O)O)NC(=O)[C@@H](C)NC1=O [compound 3303, Fol-hshta-Gly-Phe-Lys(AO)] ({Pteroyl-γGlu}-[Pra][dH][dS][dH][dT][dA][Lys(N3)]GFK(X1)-OH; triazole 1-7)
in vitro Assay Data (NEP assay) (human recombinant NEP; Table 7, AO-containing constructs): Cleavage of —G—F—K- | fraction unbound at 4 h, 2 μM ([5]; CD-1, mouse, plasma, AO-containing constructs, (FB), read-out: Plasma % Bound, Mu): 0.245 | recovery at 4 h, 2 μM ([5]; CD-1, mouse, plasma, AO-containing constructs, (FB), read-out: Plasma protein binding % Recovery, Mu): 77.7% | fraction unbound at 4 h, 2 μM ([6]; human, plasma, AO-containing constructs, (FB), read-out: Plasma % Bound, Hu): 0.19 | recovery at 4 h, 2 μM ([6]; human, plasma, AO-containing constructs, (FB), read-out: Plasma protein binding % Recovery, Hu): 80.6%

C[C@H](O)[C@H]1NC(=O)[C@@H](Cc2c[nH]cn2)NC(=O)[C@@H](CO)NC(=O)[C@@H](Cc2c[nH]cn2)NC(=O)[C@@H](NC(=O)CC[C@H](NC(=O)c2ccc(NCc3cnc4nc(N)[nH]c(=O)c4n3)cc2)C(=O)O)Cc2cn(nn2)CCCC[C@@H](C(=O)NCCOCCOCCOCC(=O)NCC(=O)N[C@@H](Cc2ccccc2)C(=O)N[C@@H](CCCCNC(=O)CN2CCN(CC(=O)O)CCN(CC(=O)O)CCN(CC(=O)O)CC2)C(=O)O)NC(=O)[C@@H](C)NC1=O [compound 6307, Fol-hshta-PEG3-Gly-Phe-Lys(DOTA)] ({Pteroyl-γGlu}-[Pra][dH][dS][dH][dT][dA][Lys(N3)][AEEEA]GFK(DOTA)-OH; triazole 1-7)
in vitro Assay Data (NEP assay) (human recombinant NEP; Table 2): Cleavage of -G-F-K- | fraction unbound [5]: 0.594 | recovery [5, 9]: 68.9% | recovery [6, 10]: 81.6% | fraction unbound ([6]; human, plasma): 0.587

C[C@H](O)[C@H]1NC(=O)[C@@H](CCC(=O)O)NC(=O)[C@@H](CCC(=O)O)NC(=O)[C@@H](Cc2ccc(O)cc2)NC(=O)[C@@H](CCCCN)NC(=O)[C@@H](NC(=O)COCCOCCOCCNC(=O)CCCC[C@@H]2SC[C@@H]3NC(=O)N[C@@H]32)Cc2cn(nn2)CCCC[C@@H](C(N)=O)NC1=O [kyeet] ({Biotin-AEEEA}-[Pra][dK][dY][dE][dE][dT][Lys(N3)]-NH2; triazole 1-7)
binding selectivity for FOLR1 (+) cells over FOLR1 (−) cells [7]: slight binding selectivity

Reference: US11766414B2, “Compositions, delivery systems, and methods useful in tumor therapy” (Indi Molecular, Inc., priority 2020, dated 2023)
